US20180049457A1, “ENZYMATIC SYNTHESIS OF SOLUBLE GLUCAN FIBER” (E I DU PONT DE NEMOURS AND COMPANY, priority 2014, published 2018)
Where a chain is given by its changes, count along the chain named.

B1: GTF0974T6: T6 C-terminal truncation of GTF0974, SEQ ID NO: 140, strain SG1306 (protein)
chain: INGKQYYVNSDGSVRKNFVFEQDGKSYYFDAETGALATKSQDEFSTEPIKATVDFSSGNQLYKNDDKSLDQLDTFITADAWYRPKSILKDGKTWTASTEADKRPLLMVWWPDKSTQVNYLNYMQNQGLGAGSFSTNSSQESLDQAAKAVQTKIEERIAREGNTNWLRTSIDQFIKTQPGWNSSTENSSYDHLQGGQLLFNNSKGDTGNRTSHANSDYRLLNRTPTNQTGTRKYFKDNSIGGLEFLLANDIDNSNPAVQAEQLNWLHFMMNIGSIMANDPTANFDGLRVDALDNVDADLLQIASDYFKAAYGVDKSEANAIKHLSYLEAWSANDPYYNKDTKGAQLPIDNALRNALTNLLMRDKNTRMQLGDMTAFINSSLNPRGANDKNGERMANYIFTRAHDTEAQTIIQRIIRDRINPNLFGYNFTRDEIKKAFEIYNEDIDKAHKTYASYNLPSVYALMLTNKDSVTRVYYGDLYREDGHYMAKKTPYFDAIDTLLRARIKYVAGGQDMEVKKVGNDGLLTSVRYGKGANNRTDLGTSETRTQGMGVIMTNNYDFRLGSNETVTMNMGRAHRNQLYRPLLLTTKDGIATYLNDSDVPKKLLKRTDWNGNLTFNANDVFGVENVQVSGYLGVWVPYGAKANQDARTQPSNRANSDGQVYKSSAALDSQVMYEAFSNFQAFADDQPELYMNRVLAKNTDLLKAWGITSVGLPPQYVSSKDGTFLDSTIDNGYAFDDRYDMALSQNNKYGSLEDLLNVLRALHKDGIQAIADWVPDQIYNLPGKEVVNATRVNGYGNHQVGYQIIDQAYVANTRTDGTDYQGKYGGAFLDELKAKYPSIFNRVQISNGKQLPTNEKITKWSAKYFNGTNILGRGINYVLRDDKTNQYFNTSANSQLLPTPLRDTGAITSTQVFQRRGQDVYFLRDNQAVKNEFVQDGNGNWYYFGGDGKMTKGAQNINNKDYYFFDNGIQLRNALRRASNGYTYYYGLDGAMVKNAFVDFDDKHKQVRAFTTQG
modifications: T6 C-terminal truncation of GTF0974
B2: GTF0974T2: T2 C-terminal truncation of GTF0974, SEQ ID NO: 138, strain SG1305 (protein)
chain: INGKQYYVNSDGSVRKNFVFEQDGKSYYFDAETGALATKSQDEFSTEPIKATVDFSSGNQLYKNDDKSLDQLDTFITADAWYRPKSILKDGKTWTASTEADKRPLLMVWWPDKSTQVNYLNYMQNQGLGAGSFSTNSSQESLDQAAKAVQTKIEERIAREGNTNWLRTSIDQFIKTQPGWNSSTENSSYDHLQGGQLLFNNSKGDTGNRTSHANSDYRLLNRTPTNQTGTRKYFKDNSIGGLEFLLANDIDNSNPAVQAEQLNWLHFMMNIGSIMANDPTANFDGLRVDALDNVDADLLQIASDYFKAAYGVDKSEANAIKHLSYLEAWSANDPYYNKDTKGAQLPIDNALRNALTNLLMRDKNTRMQLGDMTAFINSSLNPRGANDKNGERMANYIFTRAHDTEAQTIIQRIIRDRINPNLFGYNFTRDEIKKAFEIYNEDIDKAHKTYASYNLPSVYALMLTNKDSVTRVYYGDLYREDGHYMAKKTPYFDAIDTLLRARIKYVAGGQDMEVKKVGNDGLLTSVRYGKGANNRTDLGTSETRTQGMGVIMTNNYDFRLGSNETVTMNMGRAHRNQLYRPLLLTTKDGIATYLNDSDVPKKLLKRTDWNGNLTFNANDVFGVENVQVSGYLGVWVPYGAKANQDARTQPSNRANSDGQVYKSSAALDSQVMYEAFSNFQAFADDQPELYMNRVLAKNTDLLKAWGITSVGLPPQYVSSKDGTFLDSTIDNGYAFDDRYDMALSQNNKYGSLEDLLNVLRALHKDGIQAIADWVPDQIYNLPGKEVVNATRVNGYGNHQVGYQIIDQAYVANTRTDGTDYQGKYGGAFLDELKAKYPSIFNRVQISNGKQLPTNEKITKWSAKYFNGTNILGRGINYVLRDDKTNQYFNTSANSQLLPTPLRDTGAITSTQVFQRRGQDVYFLRDNQAVKNEFVQDGNGNWYYFGGDG
modifications: T2 C-terminal truncation of GTF0974
B3: GTF4336T2: T2 C-terminal truncation of GTF4336, SEQ ID NO: 144, strain SG1308 (protein)
chain: B2 chain with L594F, K602N, Y638V, I707V, N797Y, V800Q, I805V, G946A
modifications: T2 C-terminal truncation of GTF4336
B4: GTF0974T1: T1 C-terminal truncation of GTF0974, SEQ ID NO: 136, strain SG1304 (protein)
chain: INGKQYYVNSDGSVRKNFVFEQDGKSYYFDAETGALATKSQDEFSTEPIKATVDFSSGNQLYKNDDKSLDQLDTFITADAWYRPKSILKDGKTWTASTEADKRPLLMVWWPDKSTQVNYLNYMQNQGLGAGSFSTNSSQESLDQAAKAVQTKIEERIAREGNTNWLRTSIDQFIKTQPGWNSSTENSSYDHLQGGQLLFNNSKGDTGNRTSHANSDYRLLNRTPTNQTGTRKYFKDNSIGGLEFLLANDIDNSNPAVQAEQLNWLHFMMNIGSIMANDPTANFDGLRVDALDNVDADLLQIASDYFKAAYGVDKSEANAIKHLSYLEAWSANDPYYNKDTKGAQLPIDNALRNALTNLLMRDKNTRMQLGDMTAFINSSLNPRGANDKNGERMANYIFTRAHDTEAQTIIQRIIRDRINPNLFGYNFTRDEIKKAFEIYNEDIDKAHKTYASYNLPSVYALMLTNKDSVTRVYYGDLYREDGHYMAKKTPYFDAIDTLLRARIKYVAGGQDMEVKKVGNDGLLTSVRYGKGANNRTDLGTSETRTQGMGVIMTNNYDFRLGSNETVTMNMGRAHRNQLYRPLLLTTKDGIATYLNDSDVPKKLLKRTDWNGNLTFNANDVFGVENVQVSGYLGVWVPYGAKANQDARTQPSNRANSDGQVYKSSAALDSQVMYEAFSNFQAFADDQPELYMNRVLAKNTDLLKAWGITSVGLPPQYVSSKDGTFLDSTIDNGYAFDDRYDMALSQNNKYGSLEDLLNVLRALHKDGIQAIADWVPDQIYNLPGKEVVNATRVNGYGNHQVGYQIIDQAYVANTRTDGTDYQGKYGGAFLDELKAKYPSIFNRVQISNGKQLPTNEKITKWSAKYFNGTNILGRGINYVLRDDKTNQYFNTSANSQLLPTPLRDTGAIT
modifications: T1 C-terminal truncation of GTF0974
B5: GTF4336T1: T1 C-terminal truncation of GTF4336, SEQ ID NO: 142, strain SG1307 (protein)
chain: B4 chain with L594F, K602N, Y638V, I707V, N797Y, V800Q, I805V
modifications: T1 C-terminal truncation of GTF4336

test: GTF activity of strains (PAHBAH assay); type: biochemical; conditions: Experiment Number 1; enzyme expressed in B. subtilis host
In short: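 Glucosyltransferase (GTF) activity of the bacterial strains was measured with the PAHBAH assay. The enzymes tested were truncated GTF variants produced in a Bacillus subtilis expression host. Measurements were split across three separate experiments, and each activity value is reported together with the experiment it came from because results varied slightly between experiments.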

Row | Molecule | GTF activity of strains: Acitivity
1 | B1 | 33.7 U/mL
2 | B2 | 7.2 U/mL
3 | B3 | 11.5 U/mL
4 | B4 | 18.4 U/mL
5 | B5 | 9.4 U/mL
